The values that follow come from article PMC4231741.

This test addresses MspJI wild type (modification-dependent restriction endonuclease). Kind of test: crystal structure.

Turning to “MspJI wild type (modification-dependent restriction endonuclease) (enzyme)”, the stoichiometry N (in general, a count of units in the complex or per binding partner) was 4.
